Source: the DeepSol protein solubility set

Assay: soluble on expression in E. coli; label from the status in PepcDB or PDB records

Sequence	soluble on expression in E. coli
MPIKSKANEVPKEEAGVKKETPKVARKATKKDTPKELKDKENAGDDNTPKQTKGRPGRPAAKRKNLDTPDVTEKLAMEEENPPKRRSSRLTRSTRSMAEDGSPSPEKEKPEKLPFIKYKGAIKYFTESQDIAASADDVLQWVEKQKDEVVPMAFDMEWPFSFQTGPGKSAVIQICVDEKCCYIYQLTNVKKLPAALVALINHPKVRLHGVNIKNDFRKLARDFPEVTAEPLIEKCVDLGLWCNEVCETGGRWSLERLTNFIAKKAMDKSKKVRMSKWHVIPLDENQLMYAAIDVYIGQVIYRELERREKVKIKNEEEFKEKNGDAAFKAMKALGETFLTKINEVTLLEHHHHHH	soluble
MSLQSVKVNIPFWLTGSPNVGFEYTLTRQLTVNGEVLWMPYLFKKHEEVFRALQSSVELRYYVNPRNFYTNDSWDGFYIGPYAMYGNFNIGLLKHNDPLQSYRRKGWGVSGGISTGYKFAFNSRWGLDLNIGLGYAHLQYNKYYLGGEYVNFPLERKKTKRWIGPTKFGINLTYNIFREGHHHHHH	not soluble
SKGFIDQYPNYSVGLGNLRSLKGDTCNLANDVLVETNTNESFLTPLTGTLGDSLTNDDVRGFDPNRISPWAFTPENRPEALGAANSTGDGSDTAAADSDASNTAAGADSDGSAAKADAASDNQEEAAKKKETHRADQGVNGSHSRLPFNLDYRTVPVLGSWTDGKQEIAEATSSWFKLPKANDNTPLVVVSAAGSIKHKDVNGIVENGQKIVLEYGRSNTGGSLGKAEKLGELDLLDSGIDSTWRNLRIPLSDIPDDADVIRIHAKDTSLDPDEWIAFTPPRVPTMDTLANQFPASTPGLLDWAVPLQFPCQRTFNHYAGVAEIPEYRISADAKGKQSGMNFQDFAGGGVTGIAETINSSYELPSYSKNDWVRDWGSIKMYKLRTNSKGEAPDVATVDTETITRSGLWYPGRMNIDTKVTKN	not soluble
GSHMLTKQQIRYCLDEMAKMFPDAHCELVHRNPFELLIAVVLSAQCTDALVNKVTKRLFEKYRTPHDYIAVPLEELEQDIRSIGLYRNKARNIQKLCAMLIDKYNGEVPRDRDELMKLPGVGRKTANVVVSVAFGVPAIAVDTHVERVSKRLGFCRWDDSVLEVEKTLMKIIPKEEWSITHHRMIFFGRYHCKAQSPQCPSCPLLHLCREGKKRMRKREEKAANQK	soluble
MIDNVADGKIEADSKQAVNGGQLRDYTEQQMKIVLDDAKKYTDEQVKDRVSNGVNEAKSYTDMKFETLSYVVEDVRKAARQAVAMGLAVSNLRYYDIPGSLSLSFGTGIWRNQSAFAIGVGYTSEDGNIRSNLSITSADSHWDIGAGLRIKLN	not soluble
MSAISPFVAIRRDLHQIPELGFQELKTQQYLLRYIQSLPQERLQVRTWKTGIFVKVNGTSPRKTIGYRADMDGLPIREETGLPYRSKHEGHMHACGHDVHMSIALGVLTHFAHHPLEDDLLFVFQPAEEGPGGAKPMLESDIMREWKPDMIVALHIAPEYPVGTIATKEGLLFANTSELFIDLKGRGGHAAFPHLANDMVVAACALVTQLQSIVARNVDPLDSAVITIGKIAGGTVQNVIAEHARLEGTIRTLSTAAMQKVKRRIEAIVHGIEVAYECETSIDYGAMYHEVYNDPDLTAEFMKFAKAHGGVNVIRCKEAMTGEDFGYMLAEIPGFMFWLGVDSPYGLHHAKLAPNEEAIDRAIAFLIDYFSWKGNAE	not soluble
MGHHHHHHSHMEEVLEAAEKIRSMEVRGAARIARFAAETLMKFAEKASDEKFDEEMRFAAETLLNTRPTAVSLYNAINYVMRYSGESVEEKRQSVIRRAREFINWVETAQRKIGEIGEKRIKDGYTVMTHCNSSAALSVIKKAHENGKRVEVIATESRPRWQGHLTVKQLREAGIEVTLIVDSAVRYFINEVDCVVVGADTITANGALINKIGTSQIALAAKEARVPFMVAAETYKFSPKTLFGELVVIEERDAREVAPEEILKLGVKVRNPAFDVTPRDYIDVIITEIGAIPPEMAYIVITERLGYAGIEEEEITLNSRHFD	not soluble
AVKGLGKPDQVYDGSKIRVGIIHARWNRVIIDALVKGAIERMASLGVEENNIIIETVPGSYELPWGTKRFVDRQAKLGKPLDVVIPIGVLIKGSTMHFEYISDSTTHALMNLQEKVDMPVIFGLLTCMTEEQALARAGIDEAHSMHNHGEDWGAAAVEMAVKFGKNAF	soluble
MAHHHHHHMMSAAARKRRCQQARQREPAAPQQKGEASRHDDTAEPERKPLTGAVSPAINSAAEAPSATPPVLSSHFSLKPGLPTSPPLMHKRTATRCGSVDEDALFFQTYENVADMRFASLDEIAQSVVDLRQRVQQRMQHQRLLTDIEALHERHGSALLRSMPHVLNVLEAAAAVDDGAEGPSGRSGGGQFTMSPEQVYARMVRQIDEQRSGHEQHQRDPDNAEKVVGILHLRQLPVGRPIPPRIRQLRESAALAQVAASEEARRRSRLLPRESKDRSSSTTKRGVSVSAAVSIQFADPAAPLMASSTGGGRSSSLTTVMELRRWRPYLERRNRLSAALTRIFDATTLRAVYSYYRTCALLQRDAAVVRRLVPDRQQWSALPSIEELAVLDRRLEVMFEGRPSWDGRQGA	not soluble
EIINEEGKLERKADMFTRRTIQTHRAVTSVDTAVEALAVSIGEKACVDLGYMASLMGGPEKIPQIVEDLKGIIFKNPATGPFDLEDGGAHWHQGWQTADEYLSGNVRAKLAIARAAAEENPQFAINAEKLEQVQPKDLTASEISVRIGASWIDPEYYQQFMFELLHTPVYLQDRKIKLQYSPTTGEWNVQGKSTDNRDNVRVYATYGTKRINAYEIFEQTLNQRDVRIFDKTEVDGKEVRVLNEKQTAIAQQKQEAMCETFKDWIFKDPERRETLCRRYNEKFNCIRPREYDGSHIRFAGMNPEISLRTHQ	not soluble
SNAAQISDGKQYITLDKPVAGEPQVLEFFSFYCPHCYQFEEVLHVSDNVKKKLPEGTKMTKYHVEFLGPLGKELTQAWAVAMALGVEDKVTVPLFEAVQKTQTVQSAADIRKVFVDAGVKGEDYDAAWNSFVVKSLVAQQEKAAADLQLQGVPAMFVNGKYQINPQGMDTSSMDVFVQQYADTVKYLVDKK	soluble
MELIDKFITLHDQLRKDLNLASLCISKAKTTHGIGLFSVNSVDTHDLEPSIRLDTKNGKFVLLKNSENEEEKNDKKNKKKKDENKSEKKNSGESEDVEEAKKTFSGQFRPFGVLEPAAAKDARKIYRNSIQTILDLVSTQQSILAKSRQLVEDC	not soluble
MSLKKMSIKVPGKLFFAGEYSVTKEGNLALITTIETNFEVRISATTGKSIFKTNVGLSDFEFSLSKIEFTKENPWNFALTALKNTLSAADSFEKKSVSKILSSSPEISLEIVSDLGFGENKKGYGSSASVVCGLVNAVNQFFDFQLSLEKRFEIAAKTHFEVQGSGSMGDIAAIMYGGSVFYQNHKRVIPLEIPWATYVVQTGKAAKTSEKIKIKLSDEFYQASNELVIELATAIDIQDFALFKEKLSENQLLLLENIPEGYMTKELAIALNLLNSYPEFAAKISGAGFGENIILFAQNTQAIAEVQNKLSEYGINLEKFKVAQKNNEGHHHHHH	soluble
MGSDKIHHHHHHMTDERIHILRDILLELHNGASPESVQDRFDATFTGVSAIEISLMEHELMNSDSGVTFEDVMELCDVHANLFKNAIKGVEVSDTEHPGHPVRVFKEENLALRAALIRIRRLLDTYESMEDEEMLAEMRKGLVRQMGLVGQFDIHYQRKEELFFPIMERYGHDSPPKVMWGVDDQIRELFQTALTTAKSLPEVSISSVKEAFEAFATEFESMIFKEESILLMILLESFTQDDWLQIAEESDAYGYAIIRPSEKWVPERQSFIEEKIAEEPVQLDTAEGQVQQVIDTPEGHFTITFTPKEKEAVLDRHSQQAFGNGYLSVEQANLILNHLPMEITFVNKEDIFQYYNDNTPADEMIFKRTPSQVGRNVELCHPPKYLDKVKTIMKGLREGSKDKYEMWFKSESRGKFVHITYAAVHDEDGEFQGVLEYVQDIQPYREIDTDYFRGLE	not soluble
